From publication PMC6155126 come the findings set out here.

Data set [1] deals with Ku70/80 (Ku70 subunit);Ku70/80 (Ku80 subunit);Pol λ WT;PAXX (cleaved) (Homo sapiens;Homo sapiens;Homo …, UniProt P12956;P13010;Q9UGP5;Q9BUH6 1-609;1-732;1-575;1-204, |||). The experiment in a line: EMSA supershift; 20 nM Ku, 0.5 µM PAXX; EMSA: 50 mM Tris-HCl pH 7.5, 100 mM KCl, 2.5 mM MgCl2, 1 mM DTT, 4% glycerol, 0.05% Triton X-100, 0.1 mg/ml BSA, 10-20 nM DNA, 30 min at 25 °C; 4-5% native PAGE, 0.5x TBE, 4 °C. The conditions noted are these: protein: recombinant;recombinant;recombinant;recombinant; tags: FLAG;FLAG;FLAG;GST tag cleaved (PreScission); copies: 1;1;1;2; label: 5' IRDye 700 on one strand; 5-nt gap.

In data set [2] the target is Ku70/80 (Ku70 subunit);Ku70/80 (Ku80 subunit);PAXX (cleaved) (Homo sapiens;Homo sapiens;Homo sapiens, UniProt P12956;P13010;Q9BUH6 1-609;1-732;1-204, ||). The data set is described as above. The note with it: protein: recombinant;recombinant;recombinant; tags: FLAG;FLAG;GST tag cleaved (PreScission); copies: 1;1;2; label: 5' IRDye 700 on one strand; 5-nt gap.
Data set [3] concerns the target Ku70/80 (Ku70 subunit);Ku70/80 (Ku80 subunit);Pol λ WT (Homo sapiens;Homo sapiens;Homo sapiens, UniProt P12956;P13010;Q9UGP5 1-609;1-732;1-575, ||). The experiment in a line: EMSA supershift; 20 nM Ku; EMSA: 50 mM Tris-HCl pH 7.5, 100 mM KCl, 2.5 mM MgCl2, 1 mM DTT, 4% glycerol, 0.05% Triton X-100, 0.1 mg/ml BSA, 10-20 nM DNA, 30 min at 25 °C; 4-5% native PAGE, 0.5x TBE, 4 °C. The conditions noted are these: protein: recombinant;recombinant;recombinant; tags: FLAG;FLAG;FLAG; copies: 1;1;1; label: 5' IRDye 700 on one strand; 5-nt gap.

The target of data set [4] is Ku70/80 (Ku70 subunit);Ku70/80 (Ku80 subunit);Pol λ R57A/L60A (RL) (Homo sapiens;Homo sapiens;Homo sapiens, UniProt P12956;P13010;Q9UGP5 1-609;1-732;1-575, ||R57A;L60A). The experiment in a line: EMSA supershift; 20 nM Ku, 50 nM Pol λ-RL; mutant does not join DNA-bound Ku; EMSA: 50 mM Tris-HCl pH 7.5, 100 mM KCl, 2.5 mM MgCl2, 1 mM DTT, 4% glycerol, 0.05% Triton X-100, 0.1 mg/ml BSA, 10-20 nM DNA, 30 min at 25 °C; 4-5% native PAGE, 0.5x TBE, 4 °C. The conditions noted are these: protein: recombinant;recombinant;recombinant, tags: FLAG;FLAG;FLAG, copies: 1;1;1, label: IRDye 700 at 5' end of S5, 5-nt gap (CTATT of S4 unpaired), blunt outer ends.
Sequence of Ku70/80 (Ku70 subunit);Ku70/80 (Ku80 subunit);Pol λ R57A/L60A (RL) (P12956 whole entry, chain 1 of 3): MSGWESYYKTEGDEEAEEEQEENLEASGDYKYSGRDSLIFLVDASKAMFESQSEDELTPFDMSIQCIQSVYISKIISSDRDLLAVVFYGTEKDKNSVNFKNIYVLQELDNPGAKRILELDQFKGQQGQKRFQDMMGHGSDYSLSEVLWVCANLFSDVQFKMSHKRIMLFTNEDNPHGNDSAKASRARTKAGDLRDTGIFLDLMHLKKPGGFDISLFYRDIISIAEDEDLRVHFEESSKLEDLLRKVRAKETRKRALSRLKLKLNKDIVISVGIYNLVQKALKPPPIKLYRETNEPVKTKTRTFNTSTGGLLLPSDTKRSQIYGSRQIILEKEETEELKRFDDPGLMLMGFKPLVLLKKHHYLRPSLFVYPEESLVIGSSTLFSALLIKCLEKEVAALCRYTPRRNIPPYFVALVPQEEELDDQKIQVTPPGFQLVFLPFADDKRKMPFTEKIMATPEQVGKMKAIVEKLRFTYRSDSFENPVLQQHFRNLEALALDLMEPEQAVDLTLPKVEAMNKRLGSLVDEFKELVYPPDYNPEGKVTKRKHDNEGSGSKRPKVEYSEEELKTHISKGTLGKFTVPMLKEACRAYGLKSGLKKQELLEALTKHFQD
Sequence of Ku70/80 (Ku70 subunit);Ku70/80 (Ku80 subunit);Pol λ R57A/L60A (RL) (P13010 whole entry, chain 2 of 3): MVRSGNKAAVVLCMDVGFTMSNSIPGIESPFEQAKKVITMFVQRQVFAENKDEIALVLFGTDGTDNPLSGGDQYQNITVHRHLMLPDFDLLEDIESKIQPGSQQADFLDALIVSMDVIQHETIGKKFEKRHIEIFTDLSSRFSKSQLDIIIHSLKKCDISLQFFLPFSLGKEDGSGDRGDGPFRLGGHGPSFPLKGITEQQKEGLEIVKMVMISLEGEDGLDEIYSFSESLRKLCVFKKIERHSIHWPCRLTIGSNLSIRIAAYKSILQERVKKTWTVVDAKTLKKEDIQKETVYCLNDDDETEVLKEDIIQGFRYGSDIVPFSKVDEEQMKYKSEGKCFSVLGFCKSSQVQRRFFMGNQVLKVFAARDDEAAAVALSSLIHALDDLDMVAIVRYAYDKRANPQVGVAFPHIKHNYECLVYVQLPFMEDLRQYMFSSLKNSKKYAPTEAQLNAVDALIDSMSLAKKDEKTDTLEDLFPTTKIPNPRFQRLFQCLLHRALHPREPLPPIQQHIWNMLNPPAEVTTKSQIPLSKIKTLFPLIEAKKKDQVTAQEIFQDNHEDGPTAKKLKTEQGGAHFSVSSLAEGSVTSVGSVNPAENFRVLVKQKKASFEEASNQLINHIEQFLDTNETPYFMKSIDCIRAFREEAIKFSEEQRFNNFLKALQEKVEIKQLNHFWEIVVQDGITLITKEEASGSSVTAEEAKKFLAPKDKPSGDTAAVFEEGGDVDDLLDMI
Sequence of Ku70/80 (Ku70 subunit);Ku70/80 (Ku80 subunit);Pol λ R57A/L60A (RL) (Q9UGP5 whole entry R57A/L60A, chain 3 of 3): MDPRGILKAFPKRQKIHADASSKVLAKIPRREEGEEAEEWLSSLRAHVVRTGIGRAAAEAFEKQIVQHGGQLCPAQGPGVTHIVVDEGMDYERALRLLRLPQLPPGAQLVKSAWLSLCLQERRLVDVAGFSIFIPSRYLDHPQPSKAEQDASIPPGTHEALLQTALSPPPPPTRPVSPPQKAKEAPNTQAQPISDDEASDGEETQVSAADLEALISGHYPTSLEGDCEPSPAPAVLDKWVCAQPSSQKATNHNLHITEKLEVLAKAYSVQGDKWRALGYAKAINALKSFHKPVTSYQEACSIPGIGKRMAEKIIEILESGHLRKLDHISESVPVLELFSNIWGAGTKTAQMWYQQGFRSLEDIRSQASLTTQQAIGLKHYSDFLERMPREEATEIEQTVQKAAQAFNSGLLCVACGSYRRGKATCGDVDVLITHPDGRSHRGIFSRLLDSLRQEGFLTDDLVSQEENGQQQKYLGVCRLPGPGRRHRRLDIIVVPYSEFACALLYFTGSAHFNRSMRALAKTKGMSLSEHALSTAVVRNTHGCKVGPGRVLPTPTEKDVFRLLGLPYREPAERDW

Sequence of Ku70/80 (Ku70 subunit);Ku70/80 (Ku80 subunit);Pol λ WT (P12956 whole entry, chain 1 of 3): as the sequence (P12956 whole entry, chain 1 of 3) above
Sequence of Ku70/80 (Ku70 subunit);Ku70/80 (Ku80 subunit);Pol λ WT (P13010 whole entry, chain 2 of 3): as the sequence (P13010 whole entry, chain 2 of 3) above
Sequence of Ku70/80 (Ku70 subunit);Ku70/80 (Ku80 subunit);Pol λ WT (Q9UGP5 whole entry, chain 3 of 3): as the sequence (Q9UGP5 whole entry R57A/L60A, chain 3 of 3) above, with A57R, A60L counted along it

B1: 5nt-gapped dsDNA 30-mer (dsDNA)
DNA 1: ACTGGCCGTCGTTCTATTGTACTCACTGTGATC
DNA 2: GATCACAGTGAGTAC
DNA 3: AACGACGGCCAGT
For the molecule B1, the binding result in data set [1], in data set [2] and in data set [3] was “binds” in each case.

B2: 5nt-gapped dsDNA 33-mer (dsDNA)
DNA 1: ACTGGCCGTCGTTCTATTGTACTCACTGTGATC
DNA 2: GATCACAGTGAGTAC
DNA 3: AACGACGGCCAGT
modifications: 5'-phosphate on the 13-mer
With B2, the binding result in data set [4] is listed as “no binding”.
